# Source: publication PMC4036362, “Normal Activation of Discoidin Domain Receptor 1 Mutants with Disulfide Cross-links, Insertions, or Deletions in the Extracellular Juxtamembrane Region” (The Journal of Biological Chemistry, 2014)
# B1: DDR1 residue 414 to cysteine (in the C287S background) (receptor, human, UniProt Q08345 19-913, looked up)
# chain: DADMKGHFDPAKCRYALGMQDRTIPDSDISASSSWSDSTAARHSRLESSDGDGAWCPAGSVFPKEEEYLQVDLQRLHLVALVGTQGRHAGGLGKEFSRSYRLRYSRDGRRWMGWKDRWGQEVISGNEDPEGVVLKDLGPPMVARLVRFYPRADRVMSVCLRVELYGCLWRDGLLSYTAPVGQTMYLSEAVYLNDSTYDGHTVGGLQYGGLGQLADGVVGLDDFRKSQELRVWPGYDYVGWSNHSFSSGYVEMEFEFDRLRAFQAMQVHSNNMHTLGARLPGGVECRFRRGPAMAWEGEPMRHNLGGNLGDPRARAVSVPLGGRVARFLQCRFLFAGPWLLFSEISFISDVVNNSSPALGGTFPPAPWWPPGPPPTNFSSLELEPRGQQPVAKAEGCPTAILIGCLVAIILLLLLIIALMLWRLHWRRLLSKAERRVLEEELTVHLSVPGDTILINNRPGPREPPPYQEPRPRGNPPHSAPCVPNGSALLLSNPAYRLLLATYARPPRGPGPPTPAWAKPTNTQAYSGDYMEPEKPGAPLLPPPPQNSVPHYAEADIVTLQGVTGGNTYAVPALPPGAVGDGPPRVDFPRSRLRFKEKLGEGQFGEVHLCEVDSPQDLVSLDFPLNVRKGHPLLVAVKILRPDATKNARNDFLKEVKIMSRLKDPNIIRLLGVCVQDDPLCMITDYMENGDLNQFLSAHQLEDKAAEGAPGDGQAAQGPTISYPMLLHVAAQIASGMRYLATLNFVHRDLATRNCLVGENFTIKIADFGMSRNLYAGDYYRVQGRAVLPIRWMAWECILMGKFTTASDVWAFGVTLWEVLMLCRAQPFGQLTDEQVIENAGEFFRDQGRQVYLSRPPACPQGLYELMLRCWSRESEQRPPFSQLHRFLAEDALNTV
# notes: discoidin domain receptor 1, isoform DDR1b, human; full-length cDNA in pRK5; The text gives only the range V408C to A417C (10 single mutants); also called one of the 10 mutants V408C to A417C; source: HEK293, transiently transfected, in lysate
# Molecular target: the molecule itself
# Experiment: cross-linking; disulfide cross-linking of introduced cysteines in transiently transfected HEK293 cells, untreated or with 10 ug/ml collagen I for 90 min at 37 °C; lysis in 1% Nonidet P-40 buffer with NEM; nonreducing SDS-PAGE on 5% gels, Western blot with anti-DDR1; efficiency as percent dimeric of total DDR1
protein,measurement,value
B1,dimerization efficiency (percent dimeric of total DDR1),> 70%
